Laboratory results: PMC11882435, “Thermodynamic modeling of RsmA - mRNA interactions capture novel direct binding across the Pseudomonas aeruginosa transcriptome”
Residue numbers refer to the chain shown, from its start.

B1: rsaL BS1 mutant (ssRNA)
RNA: GGGAUAAUAAACGUCCGAAAAGAUCAGAGCAAUGGCUUCACACGAGAGAACACAGCCCCAAAACAUGGCCUUCCGGGCAAAGGCCACCCGCACCGCCCGCACUGAAAGCCAGGAAACUUUCUGGAGCCGCU
B2: rsaL BS2 mutant (ssRNA)
RNA: B1 RNA with C100A, A101C, C102G, U103G, G112U, G113A, A114C
B3: mvaT BS1 mutant (ssRNA)
RNA: GGGAUAAUACUUACAUGCCCGCCACCGCCACUCAGCACAGACAAGGUACCUGACAUGUCCCUGAUCAACGAAUAUCGCGCCCACACAGAAGCCAUCAAGGAACUUCAGGAGCGCCUGAAGUCCCUGGAACAAGACGACAAACUGAAAAAAGAAC
B4: mvaT BS2 mutant (ssRNA)
RNA: B3 RNA with C82A, A83C, C84G, A85G, C86A, A97C, G99A, G100U, A101U
B5: mvaT BS3 mutant (ssRNA)
RNA: B3 RNA with C82A, A83C, C84G, A85G, C86A, G126C, G127U, A128G

target: RsmA (Pseudomonas aeruginosa, UniProt O69078 1-61); assay: filter binding; affinity unchanged vs WT; Filter binding: 10 mM Tris-HCl pH 7.5, 100 mM KCl, 10 mM MgCl2, 10 mM DTT, 10 ug/mL heparin, RNase inhibitor, 0.5 nM RNA, 37 C 30 min; Hill coefficient 2; conditions: protein: recombinant; expressed in E. coli BL21; chain copies: 2; label: 5'-32P
Sequence (O69078 whole entry): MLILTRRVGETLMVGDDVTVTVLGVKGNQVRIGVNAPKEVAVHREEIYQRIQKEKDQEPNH

Row | Binder | binding result
1 | B1 | binds
2 | B2 | binds
3 | B3 | binds
4 | B4 | binds
5 | B5 | binds
